The source of these data is the nanobody polyreactivity screen of Harvey et al. (2022).

The nature of the series: yeast display, Sf9 membrane polyspecificity reagent, FACS + sequencing; frameworks hold sequencing errors. An outline of the steps:
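Galactose induction of a Saccharomyces cerevisiae BJ5465 synthetic nanobody display library ran 36–48 hours. The cells were then stained for 1 hour at 4 °C with 10% biotinylated, detergent-solubilized Sf9 membrane reagent, pulled down on streptavidin microbeads and FACS-sorted into low and high (top ~1%) gates on expression and reagent-binding fluorescence. Labels for polyreactivity follow the gate of origin.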
As to “QVQLVESWGGLVQAGGSLRLSCAASGITFDGNAMGWYRQAPGKERELVAGISGSGGGTYYADSVKGRFTISRDNAKNTVYLHMNSLKPEDTAVYYCAADTSTSHAYDYWGQGTQVTVSS”, the “polyreactivity (PSR sort gate)” value is “low polyreactivity”.
Turning to “QVQLVESWGGLVQAGGSLRLSCAASGITFYVYAMGWYRQAPGKERELVAAISSGSSTYYADSVKGRFTISRDNAKKTVYLQMNSLKPEDTAVYYCAARYRKYLSEYWGQGTQVTVSS”, the “polyreactivity (PSR sort gate)” value is given as “high polyreactivity”.
With “QVQLVESWGGLVQAGGSLRLSCAASGRIFALYAMGWYRKAPGKERELVASINSRVGSTNYADSVKGRFTISRDNAKNTVYLQMNSLKPEDTAVYYCNARFVYAYQRYYWGQGTQVTVSS” the entry was “high polyreactivity”; with “QVQLVESWGGLVQAGGSLRLSCAASGRIFFVNAMGWYRQAPGKERELVAAITSGGSTSYADSVKGRFTISRDNAKNTVFLQLNSLKAEDTAVYYCAAVFYRRFDYWGQGTQVTVSS”, “low polyreactivity”; with “QVQLVESWGGLVQAGGSLRLSCAASGSIFFPNAMGWYRQAPWKERELVAAIRGGTNTYYADSVKGRFTISRDNAKNTVYLQMNSLKPEDTAVYYCAARRSSHWFTYDYWGQGTQVTVSS”, “high polyreactivity”.
With “QVQLVESWGGLVQAGGSLRLSCAASGSIFSDYAMGWYRQARGKERELVAAITQSGGSTYADSVKGRFTISRDNAKNTVYLQMNSLKPDDTAVYYCAADEVPGFGYPPYPWFDYWGQGTQVTVSS” the entry was “low polyreactivity”; with “QVQLVESWGGLVQAGGSLRLSCAASGSNFELYAMGWYRQAPGKERELVASITWSASNTHYADSVKGRFTISRDNAKNTVYLQINSLKTEDTAVYYCAKDVLYGLFDGDSWGQGTQVTVSS”, “low polyreactivity”; with “QVQLVESWGGLVQAGGSLRLSCAASGSTFYAYAMGWYRQAPGKERELVAAIDSGGSTYYADSVKGRFTISRDNAKNTVYLQMNSLIPEDTAVYYCAVRHRYTRAYWGRDYWGQGTQVTVSS”, “low polyreactivity”.
With “QVQLVESWGGLVQAGGSLRLSCAASGSTFYWYTMGWYRQAPGKERELVARISSSGSTNYADSVKGRFTISRDNAKNTVYLQMKSLKPEDTAVYYCKKDWIYRGYDYWGQGTQVTVSS”, the “polyreactivity (PSR sort gate)” value was “high polyreactivity”.
With “QVQLVESWGGLVQAGGSLRLSCAASGYTIPDNAMGWYRQAPGKEREWVATITSGASTYYADSVKGRFTSSRDNAKNTVYLQMNSLNPEDTAVYYFARDPWALGGIGSDQKYDYWGQGTQVTVSS” the entry was “low polyreactivity”; with “QVQLVESWRGLVQAGGSLRLSCAASGNTFVYNAMRWYRQAPGKERELVAGITKTGGRTYYADSVKGRFTISRDIAKNTVYLEMNSLKPEDTAVYYCAARPWNDGYYVGRFHMVYWGQGTQVTVSS”, “low polyreactivity”; with “QVQLVETAAGLVQAGGSLRLSCAASGSIYYSYAMGGYRQAPGKERELVAAITDSGDSTYYADSVKGRFTISRDNAKNTVYLQMNSLKPEDTAVYYCAAGFYPYYYWGLGTQVTVSS”, “low polyreactivity”.
On to “QVQLVETAGGLVQARGSLRLSCAASGFIFRYNAMGWYRQERGKERELVAAINYRGGSTYYADSVKGRFTISRDNAKNTVYLQMNSLKPEDTAVYYCAVLTYRGRFEYWGQGTQVTVSS”, for which the “polyreactivity (PSR sort gate)” value was “high polyreactivity”.
To “QVQLVETAGRLVQAGGSLRLSSAASGFTFYIYAMGWSRHAPGKERQLVAAISGGGSTYYADSVKGRFTISRDNAKNTVYLQMNSLKPEVTAVYYCAVFPAAIYHRRGTYDYWGQGTQVTVSS” belongs “high polyreactivity”; to “QVQLVETGAGLVQAGGSLRLSCAPSGNTLGPYAKGWYRQGPGKERELVAAITWSGGITDYADSVKGRLTISRDNAKKTVYLQMNSLKPEDTAVYYCATKLTYTLTSGAYAYDYWGQGTQVTVSS”, “low polyreactivity”.
To “QVQLVETGGGIVQAGGILRLSCAYSGSIFYLYAMGWYRQAPGKERELVAAISTSGGRTHYADSVKGRITISRDNAKNTVYLQMNSLKPEDTAVYYCAAPAARPDGGYGYWGQGTQVTVSS” belongs “high polyreactivity”; to “QVQLVETGGGIVQAGGSLRLSFAASGFTSDYNAMGWYRQAPGKERELVAAISYSGGSTYYADSVKGRFTISRDNAKNTVYLQMNSLKPEDTAVYYCANGRYGRRYYYWGQGTQVTVSS”, “high polyreactivity”; to “QVQLVETGGGIVQAGGSLRLSSAASGRIFASNAMGWYRQAPGKERELVAAIDQCGGSTYYADSVKGRFTISRDNAKNTVYLQMNSLKPEDTAVYYCAADYITAYPRLYNYWGQGTQVTVSS”, “low polyreactivity”.
“QVQLVETGGGLFQAGGSLRLSCAPCGSIFFSIAMGWYRQAPGKDRELVAAIDSGASSTYADSVKGRFTSSRDHAKNTVYLQINSLKPEDTAVYYFAADYPATGADGYDYWGQVTQVTVSS”: the “polyreactivity (PSR sort gate)” value is reported as “low polyreactivity”.
With “QVQLVETGGGLVQAGGSFRLSCAASGGIFRTYAKGWYRQAPGKERELVAAISRSGGSTYYADSVKGRFTISRDNAKNTVYLQMNSLKPEDTAVYYCAASRPYYPLYGYWGQGTQVTVSS” the entry was “high polyreactivity”.
With “QVQLVETGGGLVQAGGSHRLSCAASGSIFSSYVMGWYRQAPGKERELVDAISSGGRTYYADSVKGRFTISRDNAKNTVYLQMNSLKPDETAVYYCAARTRRYPRPGLSPGNYWGQGTQVTVSS” the entry was “high polyreactivity”.
To “QVQLVETGGGLVQAGGSLRISCAPSGSIFQRYAMGWYTQAPGKERELVAAITGSGGSTYYADSVMWRFTISRDNAKKTVYLQMNILKPEDSAVYYCAKRYPSRQYTLYNYWGLGTQVTVSS” belongs “high polyreactivity”.
Take “QVQLVETGGGLVQAGGSLRITCAASGSIFSYYDMGLNRQAPGNEREMVAAFSWDGGDRTYADSVKGRFTISRDIAKNTVYLQMNSLKPEDSAVYYCAKNTGSYRRVNLDYWGQGTQVTVSS”: the “polyreactivity (PSR sort gate)” value is reported as “low polyreactivity”.
With “QVQLVETGGGLVQAGGSLRLICAASGSIFQGNVMGWYRQAPGKERELVAAISSGGRTYYADSVKGRFTISRDNAKNTVYLQMNSLKPEDTAVYYCAASWLTSYAYIMYYWGQGTQVTVSS” the entry was “high polyreactivity”.
To “QVQLVETGGGLVQAGGSLRLRGAASGFTFPWYAMGWYRQAPGKERELVAAISTSGDSTYYADSVKGRFTISRDNAKNTVYLQMNSLKPEDTAVYYCAARVVRGRYGYWGQGTQVTVSS” belongs “high polyreactivity”; to “QVQLVETGGGLVQAGGSLRLSCAASFRSNTMGGYRQAPRKERELVAAISGSGSRTYYADSVKGRFTISRDNAKKTVYLQMNSLKPEDTAVYYCAALSYRNSEVGTSRGDYWGQGTQVTVSS”, “high polyreactivity”; to “QVQLVETGGGLVQAGGSLRLSCAASGFNLPIYAMRCYRQPPGKEREFVAAITWTGGSTYYADSVKGRFTISRDNAKNTVYLQMNSLKPEDTAVYYCNAEGPSYYYIIYDYWGQGTQVTVSS”, “high polyreactivity”.
To “QVQLVETGGGLVQAGGSLRLSCAASGFTFTGNTMGWSRQAPGKERELVAAISQSGSRTYYADSVKGRFTISRDNAKNTVYLQMNSLKPEDTAVYYCNADYSSYWTSYDYWGQGTQVTVSS” belongs “high polyreactivity”; to “QVQLVETGGGLVQAGGSLRLSCAASGFTFYSYAMGWSRQSPRKEREFVAAGSTYYADSVKGRFTISRDYAKNTVYLQMNSLKPEDTAVYYCAADSYDVSRRYEYEYWVQGTQVTVSS”, “low polyreactivity”; to “QVQLVETGGGLVQAGGSLRLSCAASGGILVGYALGWYRQAPGKERELVAAINYSGGSTNYADSVKGRFTISRDNAKNTVYLQMNSLKPEDTAVYYCAARSTARYGYWGQGTQVTVSS”, “low polyreactivity”.
